From patent publication US20190177366A1 (published 2019)
Like-named read-outs stand apart in the source and are kept apart here. Bridge positions count the residues as written; N and C are the ends. Square brackets hold non-standard residues; d marks the D form. * marks the point of attachment. hArg = N=C(N)NCCCC[C@H](N)C(=O)O; Dap = NC[C@H](N)C(=O)O; Pentanoyl = CCCCC(=O)*

What was measured:
[1] = target: T1, human PCSK9 (proprotein convertase subtilisin/kexin type 9), His-tagged, full-length (human, UniProt A8T644 31-152; Q8NBP7 153-692, limits assumed); test: SPR, SensiQ Pioneer FE, amine-coupled protein, OneStep gradient injection (Method 3)
T1 construct: The secreted protein is the prodomain plus the catalytic/Cys-rich part (N-terminus S153) after autocleavage; also called His-PCSK9; NARC-1

[2] = target: T1, human PCSK9 (proprotein convertase …); test: TR-FRET competition vs EGF(A)-Fc on His-PCSK9
[3] = target: T1, human PCSK9 (proprotein convertase …); test: SPR, Biacore T100, His-tagged protein captured on NTA chip (Method 1)
[4] = target: T1, human PCSK9 (proprotein convertase …); test: TR-FRET competition vs EGF(A)-Fc on His-PCSK9; remark: listed apart in the source
[5] = target: T2, His-tagged, full-length PCSK9 (human, UniProt A8T644 31-152; Q8NBP7 153-692); test: TR-FRET competition; competitor EGF(A)-Fc on His-PCSK9
T2 construct: Target protein of the PCSK9/EGF(A) TR-FRET assay (10 nM); also called His-PCSK9; proprotein convertase subtilisin/kexin type 9

His-tagged PCSK9Δhelix = target: T3, His-tagged PCSK9Δhelix (human, UniProt Q8NBP7 31-152; Q8NBP7 168-692); test: TR-FRET competition; competitor Ab20 on His-PCSK9Δhelix
T3 construct: Human PCSK9 M1-Q692 with engineered TEV site, cleaved by TEV protease; Target protein of the PCSK9Δhelix/Ab20 TR-FRET assay (1.25 nM); also called His-PCSK9Δhelix

[6] = target: T1, human PCSK9 (proprotein convertase …); test: SPR, Biacore T100, NTA capture, single cycle kinetics (Method 2)
PCSK9Δhelix = target: T4, PCSK9Δhelix (human, UniProt Q8NBP7 31-152); test: TR-FRET competition, Ab20 as competitor
T4 construct: domain: prodomain; Construct M1-Q692 with engineered TEV site, cut with TEV; His-tagged (tag not written as a part); also called His-PCSK9Δhelix; open groove PCSK9Δhelix

[7] = target: T1, human PCSK9 (proprotein convertase …); test: TR-FRET competition vs EGF(A)-Fc on His-PCSK9; remark: listed apart in the source

T1 sequence (A8T644 31-152 limits assumed, chain 1 of 2): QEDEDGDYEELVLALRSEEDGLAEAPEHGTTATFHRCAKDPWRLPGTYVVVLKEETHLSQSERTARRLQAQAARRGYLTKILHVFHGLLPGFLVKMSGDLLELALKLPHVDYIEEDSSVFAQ
T1 sequence (A8T644 other isoform, or with tags, fused parts or gaps limits assumed, chain 2 of 2): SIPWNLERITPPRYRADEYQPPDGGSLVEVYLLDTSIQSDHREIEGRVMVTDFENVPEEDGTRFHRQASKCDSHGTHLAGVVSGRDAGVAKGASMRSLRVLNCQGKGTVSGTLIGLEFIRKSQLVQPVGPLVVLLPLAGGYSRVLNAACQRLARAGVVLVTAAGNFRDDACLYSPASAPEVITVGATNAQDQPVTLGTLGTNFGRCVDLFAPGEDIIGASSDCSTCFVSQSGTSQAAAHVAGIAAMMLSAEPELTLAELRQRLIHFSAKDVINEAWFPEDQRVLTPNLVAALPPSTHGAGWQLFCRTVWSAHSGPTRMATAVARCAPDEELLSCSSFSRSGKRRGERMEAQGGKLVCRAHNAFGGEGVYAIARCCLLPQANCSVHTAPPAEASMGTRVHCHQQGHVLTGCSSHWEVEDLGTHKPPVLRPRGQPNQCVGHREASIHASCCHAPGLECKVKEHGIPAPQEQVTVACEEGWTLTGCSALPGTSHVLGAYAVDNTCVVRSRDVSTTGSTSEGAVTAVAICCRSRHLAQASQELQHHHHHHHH
T4 sequence (Q8NBP7 31-152 limits assumed, stated change not applied, form in doubt, chain 1 of 2): as the sequence (A8T644 31-152 limits assumed, chain 1 of 2) above
T4 sequence (Q8NBP7 other isoform, or with tags, fused parts or gaps mutant limits assumed, form in doubt, chain 2 of 2): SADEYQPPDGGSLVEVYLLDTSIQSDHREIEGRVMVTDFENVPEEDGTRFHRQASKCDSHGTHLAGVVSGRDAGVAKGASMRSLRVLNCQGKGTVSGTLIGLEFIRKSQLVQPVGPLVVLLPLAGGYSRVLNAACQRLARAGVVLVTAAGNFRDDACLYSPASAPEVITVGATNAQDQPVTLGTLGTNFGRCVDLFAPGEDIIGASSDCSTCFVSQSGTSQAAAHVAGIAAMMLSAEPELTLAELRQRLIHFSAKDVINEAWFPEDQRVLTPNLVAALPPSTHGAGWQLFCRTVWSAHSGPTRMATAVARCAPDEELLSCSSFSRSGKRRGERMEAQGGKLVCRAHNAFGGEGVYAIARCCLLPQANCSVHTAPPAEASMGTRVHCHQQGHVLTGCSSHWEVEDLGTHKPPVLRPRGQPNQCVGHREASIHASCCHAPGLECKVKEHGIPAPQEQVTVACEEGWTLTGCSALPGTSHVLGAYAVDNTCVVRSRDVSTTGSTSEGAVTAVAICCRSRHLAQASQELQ
T3 sequence (Q8NBP7 31-152, stated change not applied, chain 1 of 2): as the sequence (A8T644 31-152 limits assumed, chain 1 of 2) above
T3 sequence (Q8NBP7 other isoform, or with tags, fused parts or gaps mutant, chain 2 of 2): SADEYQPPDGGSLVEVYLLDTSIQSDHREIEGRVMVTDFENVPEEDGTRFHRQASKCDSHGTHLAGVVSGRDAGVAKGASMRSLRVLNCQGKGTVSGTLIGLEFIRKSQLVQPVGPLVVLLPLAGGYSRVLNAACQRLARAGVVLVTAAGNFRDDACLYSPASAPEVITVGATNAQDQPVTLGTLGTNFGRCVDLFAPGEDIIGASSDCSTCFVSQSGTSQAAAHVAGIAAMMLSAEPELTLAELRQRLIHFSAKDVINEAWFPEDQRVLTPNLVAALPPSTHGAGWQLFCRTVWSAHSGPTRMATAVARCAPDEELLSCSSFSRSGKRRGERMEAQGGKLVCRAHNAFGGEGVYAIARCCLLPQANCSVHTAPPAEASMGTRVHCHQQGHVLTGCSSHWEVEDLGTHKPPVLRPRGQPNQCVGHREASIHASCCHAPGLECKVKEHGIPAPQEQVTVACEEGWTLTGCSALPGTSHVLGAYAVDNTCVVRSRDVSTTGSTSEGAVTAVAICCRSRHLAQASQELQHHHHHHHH
T2 sequence (A8T644 31-152 limits assumed, chain 1 of 2): as the sequence (A8T644 31-152 limits assumed, chain 1 of 2) above
T2 sequence (A8T644 other isoform, or with tags, fused parts or gaps limits assumed, chain 2 of 2): as the sequence (A8T644 other isoform, or with tags, fused parts or gaps limits assumed, chain 2 of 2) above

Ac-PWNLVRIGLLR-NH2 [Compound 52]
Kd [1]: 17900 nM
IC50 [2]: > 50000 nM

Ac-MPWNLVRIGLLR-NH2 [Compound 51]
Kd [1]: 26200 nM
IC50 [2]: > 50000 nM

Ac-LMPWNLVRIGLLR-NH2 [Compound 50]
Kd [1]: 16100 nM
IC50 [2]: > 50000 nM

H-SGCFIPWNLQRIGLLC-NH2 (disulfide 3-16 (inferred)) [Compound 26]
Kd [3]: 29000 nM

Ac-TVFTSWEEYLDWVGGSGKLWNLGRV-NH2 [Compound 8]
IC50 [4]: 1030 nM

Ac-TVFTSWEEYLDWVGSGGKLWNLGRV-NH2 [Compound 9]
IC50 [4]: 390 nM

B1: Compound 108 (peptide)
peptide: Ac-CR[dL]PWNLQRIGLPC-NH2
modifications: disulfide 1-14
SMILES: CC[C@H](C)[C@@H]1NC(=O)[C@H](CCCNC(=N)N)NC(=O)[C@H](CCC(N)=O)NC(=O)[C@H](CC(C)C)NC(=O)[C@H](CC(N)=O)NC(=O)[C@H](Cc2c[nH]c3ccccc23)NC(=O)[C@@H]2CCCN2C(=O)[C@@H](CC(C)C)NC(=O)[C@H](CCCNC(=N)N)NC(=O)[C@@H](NC(C)=O)CSSC[C@@H](C(N)=O)NC(=O)[C@@H]2CCCN2C(=O)[C@H](CC(C)C)NC(=O)CNC1=O
IC50 [5]: > 50000 nM
IC50 (His-tagged PCSK9Δhelix): 28200 nM

Ac-SPCRVGYTPC-NH2 (disulfide 3-10 (inferred)) [Compound 23]
Kd [6]: 5740 nM

B2: Compound 229 (peptide)
peptide: Ac-MESFPGWNLV[hArg]IGLLR-NH2
SMILES: CC[C@H](C)[C@H](NC(=O)[C@H](CCCCNC(=N)N)NC(=O)[C@@H](NC(=O)[C@H](CC(C)C)NC(=O)[C@H](CC(N)=O)NC(=O)[C@H](Cc1c[nH]c2ccccc12)NC(=O)CNC(=O)[C@@H]1CCCN1C(=O)[C@H](Cc1ccccc1)NC(=O)[C@H](CO)NC(=O)[C@H](CCC(=O)O)NC(=O)[C@H](CCSC)NC(C)=O)C(C)C)C(=O)NCC(=O)N[C@@H](CC(C)C)C(=O)N[C@@H](CC(C)C)C(=O)N[C@@H](CCCNC(=N)N)C(N)=O
fold improvement of affinity against Compound 192 (PCSK9Δhelix): > 6 fold

Ac-TVFTSWEEYLDWVGSGKLWN-NH2 [Compound 7]
IC50 [4]: 500 nM

Ac-TVFTSWEEYLDWVGSGKLWNL-NH2 [Compound 6]
IC50 [4]: 740 nM

Ac-WNLVRIGLLR-NH2 [Compound 53]
Kd [1]: 223000 nM
IC50 [2]: > 50000 nM

Ac-TVFTSWEEYLDWVGSGKLWNLGR-NH2 [Compound 4]
IC50 [4]: 490 nM

Ac-TVFTSWEEYLDWVGSGDLMPWNLVRIGLLR-NH2 (also called Pep2-8p7; Pep2-8_K9gvpep7) [Compound 20]
IC50 [4]: 37 nM
Kd [3]: 5.56 nM

Ac-TVFTSWEEYLDWVGSGKLWNLG-NH2 [Compound 5]
IC50 [4]: 720 nM

Ac-TVFTSWEEYLDWVGSGKLWNLGRV-NH2 [Compound 1]
IC50 [4]: 388 nM

Ac-ALMPWNLVRIGLLR-NH2 [Compound 45]
Kd [1]: 117000 nM
IC50 [2]: > 50000 nM

Ac-DLMPWNLVRIGLAR-NH2 [Compound 55]
Kd [1]: 96500 nM
IC50 [2]: > 50000 nM

Ac-TVFTSWEEYLDWVGSGCRLPWNLQRIGLPC-NH2 (disulfide 17-30 (inferred), also called Pep2-8p4; Pep2-8_K9gvpep4) [Compound 19]
IC50 [7]: 9 nM
Kd [3]: 2.07 nM

Ac-TVFTSWEEYLDWVGSGGCRLPWNLQRIGLPC-NH2 (disulfide 18-31 (inferred)) [Compound 25]
IC50 [7]: 781 nM

Ac-TVFTSWEEYLDWVGSGGCFLPWNLQRIGLLC-NH2 (disulfide 18-31 (inferred)) [Compound 38]
IC50 [7]: 471 nM

B3: Compound 97 (peptide)
peptide: Ac-GSGCWNL[Dap]RIGSQGC-NH2
modifications: disulfide 4-15
SMILES: CC[C@H](C)[C@@H]1NC(=O)[C@H](CCCNC(=N)N)NC(=O)[C@H](CN)NC(=O)[C@H](CC(C)C)NC(=O)[C@H](CC(N)=O)NC(=O)[C@H](Cc2c[nH]c3ccccc23)NC(=O)[C@@H](NC(=O)CNC(=O)[C@H](CO)NC(=O)CNC(C)=O)CSSC[C@@H](C(N)=O)NC(=O)CNC(=O)[C@H](CCC(N)=O)NC(=O)[C@H](CO)NC(=O)CNC1=O
notes: also called Ac-GSG-CWNL(Dpr)RIGSQGC-NH2
Kd [1]: 522000 nM

B4: Compound 2 (peptide)
peptide: Ac-TVFTSWEEYLDWVGSGCWNLKRIGSQGC-NH2
modifications: disulfide 17-28
SMILES: CC[C@H](C)[C@@H]1NC(=O)[C@H](CCCNC(=N)N)NC(=O)[C@H](CCCCN)NC(=O)[C@H](CC(C)C)NC(=O)[C@H](CC(N)=O)NC(=O)[C@H](Cc2c[nH]c3ccccc23)NC(=O)[C@@H](NC(=O)CNC(=O)[C@H](CO)NC(=O)CNC(=O)[C@@H](NC(=O)[C@H](Cc2c[nH]c3ccccc23)NC(=O)[C@H](CC(=O)O)NC(=O)[C@H](CC(C)C)NC(=O)[C@H](Cc2ccc(O)cc2)NC(=O)[C@H](CCC(=O)O)NC(=O)[C@H](CCC(=O)O)NC(=O)[C@H](Cc2c[nH]c3ccccc23)NC(=O)[C@H](CO)NC(=O)[C@@H](NC(=O)[C@H](Cc2ccccc2)NC(=O)[C@@H](NC(=O)[C@@H](NC(C)=O)[C@@H](C)O)C(C)C)[C@@H](C)O)C(C)C)CSSC[C@@H](C(N)=O)NC(=O)CNC(=O)[C@H](CCC(N)=O)NC(=O)[C@H](CO)NC(=O)CNC1=O
IC50 [7]: 110 nM
Kd [6]: 30.3 nM

Ac-TVFTSWEEYLDWVGSGCWNLGRIGSQGC-NH2 (disulfide 17-28 (inferred)) [Compound 11]
IC50 [7]: 340 nM

Ac-TVFTSWEEYLDWVGSGCWNLKRVGSQGC-NH2 (disulfide 17-28 (inferred)) [Compound 12]
IC50 [7]: 190 nM

B5: Compound 112 (peptide)
peptide: Pentanoyl-WNLVRIGLTR-NH2
SMILES: CCCCC(=O)N[C@@H](Cc1c[nH]c2ccccc12)C(=O)N[C@@H](CC(N)=O)C(=O)N[C@@H](CC(C)C)C(=O)N[C@H](C(=O)N[C@@H](CCCNC(=N)N)C(=O)N[C@H](C(=O)NCC(=O)N[C@@H](CC(C)C)C(=O)N[C@H](C(=O)N[C@@H](CCCNC(=N)N)C(N)=O)[C@@H](C)O)[C@@H](C)CC)C(C)C
IC50 (PCSK9Δhelix): < 10000 nM

B6: Compound 28 (peptide)
peptide: SGDLMPWNLVRIGLLR
notes: Printed without N-terminal cap and without C-terminal amide
Kd [3]: 46100 nM

Ac-TVFTSWEEYLDWVGGSGCWNLKRIGSQGC-NH2 (disulfide 18-29 (inferred)) [Compound 13]
IC50 [7]: 10 nM

Ac-TVFTSWEEYLDWVGSGGCWNLKRIGSQGC-NH2 (disulfide 18-29 (inferred)) [Compound 14]
IC50 [7]: 9 nM
